Assay results as given in PMC2938383 (Molecular Biology of the Cell, 2010).

Target: the molecule itself
Assay: SEC

B1: purified wild-type lipin1β (His6-tagged, baculovirus expressed) (enzyme, mouse, UniProt Q91ZP3 1-924, looked up)
chain: MNYVGQLAGQVFVTVKELYKGLNPATLSGCIDIIVIRQPNGSLQCSPFHVRFGKMGVLRSREKVVDIEINGESVDLHMKLGDNGEAFFVQETDNDQEIIPMYLATSPILSEGAARMESQLKRNSVDRIRCLDPTTAAQGLPPSDTPSTGSLGKKRRKRRRKAQLDNLKRDDNVNSSEDEDMFPIEMSSDEDTAPMDGSRTLPNDVPPFQDDIPKENFPSISTHPQSASYPSSDREWSPSPSSLVDCQRTPPHLAEGVLSSSCPLQSCHFHASESPSGSRPSTPKSDSELVSKSADRLTPKNNLEMLWLWGELPQAAKSSSPHKMKESSPLGSRKTPDKMNFQAIHSESSDTFSDQSPTMARGLLIHQSKAQTEMQFVNEEDLESLGAAAPPSPVAEELKAPYPNTAQSSSKTDSPSRKKDKRSRHLGADGVYLDDLTDMDPEVAALYFPKNGDPGGLPKQASDNGARSANQSPQSVGGSGIDSGVESTSDSLRDLPSIAISLCGGLSDHREITKDAFLEQAVSYQQFADNPAIIDDPNLVVKVGNKYYNWTTAAPLLLAMQAFQKPLPKATVESIMRDKMPKKGGRWWFSWRGRNATIKEESKPEQCLTGKGHNTGEQPAQLGLATRIKHESSSSDEEHAAAKPSGSSHLSLLSNVSYKKTLRLTSEQLKSLKLKNGPNDVVFSVTTQYQGTCRCEGTIYLWNWDDKVIISDIDGTITRSDTLGHILPTLGKDWTHQGIAKLYHKVSQNGYKFLYCSARAIGMADMTRGYLHWVNERGTVLPQGPLLLSPSSLFSALHREVIEKKPEKFKVQCLTDIKNLFFPNTEPFYAAFGNRPADVYSYKQVGVSLNRIFTVNPKGELVQEHAKTNISSYVRLCEVVDHVFPLLKRSHSCDFPCSDTFSNFTFWREPLPPFENQDMHSASA
stoichiometry N: ~4
